According to article PMC11099023:

Biological target: Asparaginase-like 1 protein (ASRGL1), recombinant full-length (UniProt Q7L266)
Assay: differential scanning fluorimetry (protein thermal shift assay); recombinant ASRGL1 with increasing concentrations of TDP-43 in PBS (10 mM phosphate, 150 mM NaCl, pH 7.4), 30 min at 25 °C, ramp 25 to 99 °C; Tm plotted against TDP-43 concentration, inflection point of a sigmoidal fit …

Chain of UniProt Q7L266 (Q7L266 whole entry): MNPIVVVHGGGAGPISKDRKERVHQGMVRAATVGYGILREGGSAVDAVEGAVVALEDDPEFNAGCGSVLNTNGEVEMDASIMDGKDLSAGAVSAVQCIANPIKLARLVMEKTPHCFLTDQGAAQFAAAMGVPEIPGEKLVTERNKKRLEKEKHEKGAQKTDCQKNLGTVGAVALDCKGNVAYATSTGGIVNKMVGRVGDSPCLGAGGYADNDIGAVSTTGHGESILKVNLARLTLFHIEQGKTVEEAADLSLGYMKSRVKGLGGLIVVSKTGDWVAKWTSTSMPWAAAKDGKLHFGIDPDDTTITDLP

- EC50: 36.1 nM
- shift in Tm of ASRGL1 with 1 μM TDP-43: 10 °C
Substance: TAR DNA-binding protein 43 (TDP-43), native form, recombinant full-length (from UniProt Q13148 1-414) (natural protein)
